The record followed here is paper PMC11925728, “Homeodomain protein PRRX1 anchors the Ku heterodimers at DNA double-strand breaks to promote nonhomologous end-joining”.

One data set deals with MBP-PRRX1A (MBP-PA) (UniProt P54821-2 1-217). Description: pull-down; EMSA: 20 mM Tris-HCl pH 7.4, 10 mM MgCl2, 2.5% glycerol, 0.05% NP-40, 0.1 ug/ul BSA, RT, 200 nM DNA; MST: 20 mM Tris-HCl pH 7.4, 150 mM NaCl, 10 mM MgCl2, 2.5%. The settings on record: protein: recombinant, tags: N-term MBP (pMAL-c2X). On the technique in general: In EMSA bound probe runs differently from free probe, usually more slowly.

Another data set deals with His-PRRX1A (His-PA) (UniProt P54821-2 1-217). Put plainly: MST; 10 mM Mg2+; Kd only in figure; EMSA: 20 mM Tris-HCl pH 7.4, 10 mM MgCl2, 2.5% glycerol, 0.05% NP-40, 0.1 ug/ul BSA, RT, 200 nM DNA; MST: 20 mM Tris-HCl pH 7.4, 150 mM NaCl, 10 mM MgCl2, 2.5%. The settings on record: protein: recombinant; tags: His (pET-28a); label: 3' 6-FAM on strand 1; blunt.
Another data set has as its target MBP-PA HD (UniProt P54821-2 94-153). Description: pull-down; EMSA: 20 mM Tris-HCl pH 7.4, 10 mM MgCl2, 2.5% glycerol, 0.05% NP-40, 0.1 ug/ul BSA, RT, 200 nM DNA; MST: 20 mM Tris-HCl pH 7.4, 150 mM NaCl, 10 mM MgCl2, 2.5%. The settings on record: protein: recombinant; tags: N-term MBP; label: 3' biotin on strand 1; blunt.
Another data set deals with MBP-PA NRRMut (UniProt P54821-2 1-217, N144A;R145A;R146A). The description is as above. Particulars: protein: recombinant; tags: N-term MBP; label: 3' biotin on strand 1; blunt.
A further data set has as its target MBP-PA R146A (UniProt P54821-2 1-217, R146A). Put plainly: pull-down; dsDNA, blunt inferred; EMSA: 20 mM Tris-HCl pH 7.4, 10 mM MgCl2, 2.5% glycerol, 0.05% NP-40, 0.1 ug/ul BSA, RT, 200 nM DNA; MST: 20 mM Tris-HCl pH 7.4, 150 mM NaCl, 10 mM MgCl2, 2.5%. Particulars: protein: recombinant, tags: N-term MBP, label: 3' biotin on strand 1.

Chain of MBP-PRRX1A (MBP-PA) (P54821 other isoform, or with tags, fused parts or gaps): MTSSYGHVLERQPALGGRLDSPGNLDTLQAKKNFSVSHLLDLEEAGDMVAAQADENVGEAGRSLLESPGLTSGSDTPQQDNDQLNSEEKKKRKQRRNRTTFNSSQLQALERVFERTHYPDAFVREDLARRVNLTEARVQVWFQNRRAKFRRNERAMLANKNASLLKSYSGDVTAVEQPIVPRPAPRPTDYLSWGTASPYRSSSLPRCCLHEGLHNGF
Chain of MBP-PA HD (P54821 94-153): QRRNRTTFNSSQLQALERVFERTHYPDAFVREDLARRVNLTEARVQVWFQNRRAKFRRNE
Chain of His-PRRX1A (His-PA) (P54821 other isoform, or with tags, fused parts or gaps): as the sequence (P54821 other isoform, or with tags, fused parts or gaps) above
Chain of MBP-PA NRRMut (P54821 other isoform, or with tags, fused parts or gaps N144A;R145A;R146A): as the sequence (P54821 other isoform, or with tags, fused parts or gaps) above, with N144A, R145A, R146A counted along it
Chain of MBP-PA R146A (P54821 other isoform, or with tags, fused parts or gaps R146A | R146A R146A): as the sequence (P54821 other isoform, or with tags, fused parts or gaps) above, with R146A counted along it

As to GAGCCCTCGTGTAAACAACATCTTTTTTTG (ssDNA) [ssDNA Oligo#2-S], the binding result with MBP-PRRX1A (MBP-PA) (label: 3' biotin, single strand) is reported as “no binding”.

B1: MST blunt (Oligo#3-S/#1-A) (dsDNA)
DNA 1: AAGATGTTGTTTACACGAGGGCTCGAGCCCTCGTGTAAACAACATCTTTTTTTG
DNA 2: CAAAAAAAGATGTTGTTTACACGAGGGCTCGAGCCCTCGTGTAAACAACATCTT
On to B1, for which the binding result with His-PRRX1A (His-PA) is on record as “binds”.

B2: 3' overhang DNA (Oligo#1-A/#2-S) (dsDNA)
DNA 1: CAAAAAAAGATGTTGTTTACACGAGGGCTCGAGCCCTCGTGTAAACAACATCTT
DNA 2: GAGCCCTCGTGTAAACAACATCTTTTTTTG
With B2, in the data set with MBP-PRRX1A (MBP-PA) (label: 3' biotin on strand 2, 3' overhang 24 nt (strand 1)), the binding result was “binds”.

B3: blunt dsDNA 54 bp, biotinylated (Oligo#1-S/#1-A) (dsDNA)
DNA 1: AAGATGTTGTTTACACGAGGGCTCGAGCCCTCGTGTAAACAACATCTTTTTTTG
DNA 2: CAAAAAAAGATGTTGTTTACACGAGGGCTCGAGCCCTCGTGTAAACAACATCTT
Take B3: the binding result with MBP-PRRX1A (MBP-PA) (label: 3' biotin on strand 1, blunt) is “binds”; with MBP-PA HD it was “no binding”; with MBP-PA NRRMut it was “no binding”; in the data set with MBP-PA R146A, “no binding”.

B4: 5' overhang DNA (Oligo#1-S/#2-A) (dsDNA)
DNA 1: AAGATGTTGTTTACACGAGGGCTCGAGCCCTCGTGTAAACAACATCTTTTTTTG
DNA 2: CAAAAAAAGATGTTGTTTACACGAGGGCTC
Regarding B4, in the data set with MBP-PRRX1A (MBP-PA) (label: 3' biotin on strand 1, 5' overhang 24 nt (strand 1)), the binding result is “binds”.
